Assay results from publication PMC4429812 (Biochemistry, 2015).
Several values for one entry are separate records, joined by “and”; a condition that tells them apart may be missing. Equal entries are not always repeated.

Experiments:
[1] = biological target: amphiphysin clathrin-box peptide clathrin-box peptide (UniProt P49418); details: cited from earlier work
[2] = biological target: T1, clathrin N-terminal domain (TD) of the clathrin heavy chain, bovine, residues 1-363 (bovine, UniProt P49951 1-363); assay: NMR titration
T1 sequence (looked up): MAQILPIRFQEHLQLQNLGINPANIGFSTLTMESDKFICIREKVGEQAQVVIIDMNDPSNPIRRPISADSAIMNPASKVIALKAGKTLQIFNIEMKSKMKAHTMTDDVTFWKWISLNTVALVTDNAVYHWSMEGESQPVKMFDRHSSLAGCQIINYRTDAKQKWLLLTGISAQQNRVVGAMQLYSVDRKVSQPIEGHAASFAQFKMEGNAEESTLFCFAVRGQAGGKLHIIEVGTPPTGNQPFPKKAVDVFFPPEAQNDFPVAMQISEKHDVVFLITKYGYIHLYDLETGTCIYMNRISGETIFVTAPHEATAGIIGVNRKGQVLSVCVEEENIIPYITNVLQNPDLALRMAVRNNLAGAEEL

[3] = biological target: T1, clathrin N-terminal domain (TD) of the …; assay: ITC

Sequence of amphiphysin clathrin-box peptide clathrin-box peptide (P49418 whole entry, looked up, the tested form may be a part): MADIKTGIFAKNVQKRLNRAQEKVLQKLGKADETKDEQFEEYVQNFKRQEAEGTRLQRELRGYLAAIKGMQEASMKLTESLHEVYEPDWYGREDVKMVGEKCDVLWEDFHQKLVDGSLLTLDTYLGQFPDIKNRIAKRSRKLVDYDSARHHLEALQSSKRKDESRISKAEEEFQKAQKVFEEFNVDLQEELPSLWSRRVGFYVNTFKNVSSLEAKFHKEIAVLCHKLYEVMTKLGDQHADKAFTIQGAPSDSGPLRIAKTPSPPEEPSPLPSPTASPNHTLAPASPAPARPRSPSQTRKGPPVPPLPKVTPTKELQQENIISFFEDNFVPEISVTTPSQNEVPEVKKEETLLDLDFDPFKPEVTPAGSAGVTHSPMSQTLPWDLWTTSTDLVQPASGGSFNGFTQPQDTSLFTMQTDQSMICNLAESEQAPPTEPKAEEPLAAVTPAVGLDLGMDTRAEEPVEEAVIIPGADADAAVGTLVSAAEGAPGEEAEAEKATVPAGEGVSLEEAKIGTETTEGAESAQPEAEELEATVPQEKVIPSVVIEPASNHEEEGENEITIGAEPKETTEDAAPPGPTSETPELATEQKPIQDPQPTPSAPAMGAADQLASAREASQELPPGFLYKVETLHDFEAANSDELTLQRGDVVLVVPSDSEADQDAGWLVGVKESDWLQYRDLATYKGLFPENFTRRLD

Q: Which Kd [1] does the source give for “clathrin heavy chain N-terminal domain (from UniProt P49951)” here?
A: 22 µM

Q: For CQVIPSQGDLLGDLLNLDLGPPVNVPQ [AP2 peptide (clathrin-box peptide from the hinge of the AP2 β2 subunit, residues 619-644)], which Kd [2] is on record?
A: 867 ± 246 µM

Q: And the “stoichiometry N” value [2]?
A: 2.6 ± 0.4

Q: What about the Kd [3] of the same molecule?
A: 420 µM and 474 µM

Q: And the dH [3]?
A: -2.8 kcal/mol

Q: And the “stoichiometry N” value [3]?
A: 3.01 and 3

Q: With CPQAVASSSASADLLAGFGGSFMAPS [AP180 peptide 2 (residues 655-679 of mouse AP180)] as the molecule, how does the Kd [2] read?
A: 899 ± 529 µM

Q: What about the “stoichiometry N” value [2] of the same molecule?
A: 3.7 ± 0.6

Q: What does the source list for CSPAKAESSGVIDLFGDAFGSGASETQ [AP180 peptide 1 (residues 627-652 of mouse AP180)]?
A: Kd [2]: 829 ± 221 µM; stoichiometry N [2]: 3.9 ± 0.3
